# Results taken from the FLAb antibody collection (doi:10.1101/2023.12.08.570889).
# Where a chain is given by its changes, count along the chain named.
# B1: unnamed (protein)
# chain 1: QMQLVESGGGVVQPGRSLRLSCAASGFTFRTYGMHWVRQAPGKGLEWVAVIWYDGSNKHYADSVKGRFTITRDNSKNTLNLQMNSLRAEDTAVYYCARGPMALLYYRGFDYWGQGTMVTVSS
# chain 2: SYVLTQPPSVSVAPGQTARITCGGNNLGSKSVHWYQQKPGQAPVLVVYDDSDRPSWIPERFSGSNSGNTATLTISRGEAGDEADYYCQVWDSSSDHVVFGGGTKLTVL
# B2: unnamed (protein)
# chain 1: QMQLVESGGGVVQPGRSLRLSCAASGFTFRTYGMHWVRQAPGKGLEWVAVIWYDGSNKHYADSVKGRFTITRDNSKNTLNLQMNSLRAEDTAVYYCARDRFDVASGSSFDFWGQGTMVTVSS
# chain 2: B1 chain 2
# B3: unnamed (protein)
# chain 1: B1 chain 1 with A97T, G99D, P100G, M101G, A102L, L104F, Y105A, R107Y, G108A, F109M
# chain 2: B1 chain 2
# B4: unnamed (protein)
# chain 1: QMQLVESGGGVVQPGRSLRLSCAASGFTFRTYGMHWVRQAPGKGLEWVAVIWYDGSNKHYADSVKGRFTITRDNSKNTLNLQMNSLRAEDTAVYYCNAAIRTTVRTSAQEYWGQGTMVTVSS
# chain 2: B1 chain 2
# B5: unnamed (protein)
# chain 1: B1 chain 1 with G99S, M101R, A102Y, L103D, L104Y, Y106W, R107E, G108A, Y111V
# chain 2: B1 chain 2
# B6: unnamed (protein)
# chain 1: B1 chain 1 with G99S, M101R, A102Y, L103Y, L104W, R107E, G108A, Y111V
# chain 2: B1 chain 2
# B7: unnamed (protein)
# chain 1: B1 chain 1 with G99A, M101R, A102Y, L103D, L104Y, Y106L, R107E, G108A, Y111V
# chain 2: B1 chain 2
# B8: unnamed (protein)
# chain 1: B1 chain 1 with G99A, M101R, A102Y, L103D, L104D, Y105R, Y106W, R107E, G108A, Y111V
# chain 2: B1 chain 2
# B9: unnamed (protein)
# chain 1: B1 chain 1 with G99A, M101R, A102Y, L103D, L104T, R107E, G108A, Y111V
# chain 2: B1 chain 2
# B10: unnamed (protein)
# chain 1: B1 chain 1 with G99S, M101R, A102Y, L103D, L104W, Y106W, R107E, G108A, Y111V
# chain 2: B1 chain 2
# B11: unnamed (protein)
# chain 1: B1 chain 1 with G99A, M101R, A102Y, L103D, L104W, Y105L, R107E, G108A, Y111V
# chain 2: B1 chain 2
# B12: unnamed (protein)
# chain 1: B1 chain 1 with G99A, M101R, A102Y, L103D, L104D, Y105L, R107E, G108A, Y111V
# chain 2: B1 chain 2
# B13: unnamed (protein)
# chain 1: B1 chain 1 with G99A, M101R, A102Y, L103D, L104D, Y105T, R107E, G108A, Y111V
# chain 2: B1 chain 2
# B14: unnamed (protein)
# chain 1: B1 chain 1 with G99A, M101R, A102Y, L103D, L104E, Y105A, R107E, G108A, Y111V
# chain 2: B1 chain 2
# B15: unnamed (protein)
# chain 1: B1 chain 1 with G99A, M101R, A102Y, L103D, L104D, Y105R, R107E, G108A, Y111V
# chain 2: B1 chain 2
# B16: unnamed (protein)
# chain 1: B1 chain 1 with G99A, M101R, A102Y, L103D, L104W, Y105E, R107E, G108A, Y111V
# chain 2: B1 chain 2
# B17: unnamed (protein)
# chain 1: B1 chain 1 with G99S, M101R, A102Y, L103D, L104D, Y106L, R107E, G108A, Y111V
# chain 2: B1 chain 2
# B18: unnamed (protein)
# chain 1: B1 chain 1 with G99S, M101R, A102Y, L103Y, L104D, Y106W, R107E, G108A, Y111V
# chain 2: B1 chain 2
# B19: unnamed (protein)
# chain 1: B1 chain 1 with G99A, M101R, A102Y, L103D, L104Y, Y106V, R107E, G108A, Y111V
# chain 2: B1 chain 2
# Biological target: TSLP, Q969D9
# Experiment: Kd (SPR)
row,Binder,Kd [nM]
1,B1,183
2,B2,126
3,B3,110
4,B4,103
5,B5,290
6,B6,81.9
7,B7,238
8,B8,193
9,B9,83.9
10,B10,240
11,B11,83
12,B12,122
13,B13,86.2
14,B14,103
15,B15,241
16,B16,102
17,B17,228
18,B18,72.3
19,B19,109
